Experimental findings from the Immune Epitope Database (IEDB) are described below.

For orientation: Kd means the equilibrium constant for the complex coming apart. Low readings indicate tighter binding, high ones weaker binding.

The test concerns the target HLA-A*02:01. Nature of the test: IEDB peptide-MHC binding, purified MHC/direct/fluorescence; filed as Kd, often an IC50 or EC50 that approximates it; ≥ and ≤ were set here for values at or beyond the usual limits of such assays. The conditions noted are these: source organism: Mycobacterium tuberculosis H37Rv.
In turn, AIYDTMQYV gave a Kd of no more than 1 nM.
Take ALDEGLLPV: the Kd was no more than 1 nM.
In turn, ALLGGLRPV registered an equilibrium dissociation constant (Kd) of no more than 1 nM.
AMAGSIDLL yielded a Kd of 4 nM.
The sequence GMFANRWII registered a dissociation constant (Kd) of 27 nM.
Next, HLDDVGFLV: no more than 1 nM; KLQERLAKL: 18 nM.
For the sequence LLYDGSFAV, the Kd is no more than 1 nM.
Next, SLIDLLHKI: no more than 1 nM; SLRNWIATL: 66 nM; SLWKDGAPL: 5 nM.
As for WLYPGAQNL, the figure is no more than 1 nM; as for YLLADTFTV, no more than 1 nM; as for YLPDPTVGV, no more than 1 nM.
As for YVYPDNLPV, the figure is 2 nM.
